In series [1] the test system is Gpa1(1–41)-human Gαi3 (36–354) in S. cerevisiae. In words: G-protein activation in yeast (Fus3 phosphorylation). Particulars: strain MMY11, ppFus3 immunoblot. The format is cell-based. The source says:
G-protein activation assay in yeast
The native G-protein-dependent pheromone response pathway is similarly modified in both strains: the pheromone-activated GPCR (Ste2 or Ste3), endogenous Gα-subunit (Gpa1) and the cell cycle arrest-inducing protein far1 are deleted. In MMY11, the G-protein inhibitor Sst2 is also deleted. Both strains were transformed with a centromeric plasmid (CEN TRP) encoding a chimeric yeast Gpa1(1–41)-human Gαi3 (36–354) protein under the control of the endogenous Gpa1 promoter[68] (courtesy of Mary Cismowski, Nationwide Children's Hospital) using the lithium acetate method. […] Individual colonies were inoculated into 3 ml of SDGalactose-Trp-Ura and incubated overnight at 30 °C to induce the expression of the proteins of interest under the control of the galactose-inducible promoter of pYES2. This starting culture was used to inoculate 20 ml of SDGalactose-Trp-Ura at 0.3 OD600. Exponentially growing cells (∼0.7–0.8 OD600, 4–5 h) were pelleted to prepare samples for immunoblotting (see below). […]
Yeast protein samples for immunoblotting were prepared by acid lysis and precipitation followed by neutralization and solubilization. […] Proteins (∼15–20 μl per lane) were separated by SDS–PAGE, blocked in PBS supplemented with 5% BSA and analysed by sequential incubation with primary and secondary antibodies. […]
(In western blotting, separated proteins are transferred to a membrane and probed.)

In another series the test system is Gαi3-GDP. The series is described as follows: NMR perturbation of Gαi3-GDP backbone amide signals. Type of series: binding, human. The note with it: 30 °C, pH 7.0, TROSY. On the procedure:
Full-length human Gαi3 (UNIPROT entry P08754) cloned in a pET24d(+) plasmid (a generous gift from Ichio Shimada, University of Tokyo) was used to purify the protein used in NMR experiments. For this, protein expression was induced in BL21 Rosetta (Life Technologies) cell cultures with 1 mM IPTG for 16 h at 23 °C in a modified M9 minimal medium containing 1 g l^−1 15N-NH4Cl, 2 g l^−1 2H-^13C-glucose and 1 g l^−1 of ^2H-^13C-^15N Celtone base powder in ^2H2O with 30 mg l^−1 kanamycin and 34 mg l^−1 chloramphenicol. The pelleted cells were lysed by sonication in 50 mM Tris, 200 mM NaCl, 100 mM KCl and 1 mM DTT at pH 8.0, and the supernatant was loaded on a Ni^2+-loaded His-Trap FF column. […]
All NMR data were measured on a Bruker Avance III 800 MHz (18.8 T) spectrometer equipped with a cryogenically cooled triple resonance z-gradient probe, processed with Topspin (Bruker) and analysed with Sparky. […] Gαi3 spectra were recorded at 30 °C on ^2H-^13C-^15N–Gαi3 samples with a threefold molar excess of GDP in 10 mM HEPES (pH 7.0) with 10 mM MgCl2, 5 mm DTT, 0.01% NaN3 and 5% ^2H2O. […] The assignment of Gαi3 resonances in the presence of a fivefold molar excess of GIV fragment 1,671–1,696 was achieved from the joint analysis of an HNCO and ^1H–^15N TROSY spectra recorded along a titration (at molar ratios 1:0, 1:0.2,1:0.5, 1:1, 1:2 and 1:5). […]

The nature of series [2]: Circular dichroism and thermal denaturation of GIV-CT. Type of series: physicochemical. On the procedure:
Circular dichroism measurements were performed on a Jasco J-810 spectropolarimeter (JASCO, Tokyo, Japan). The circular dichroism spectrum was recorded on a GIV-CT protein sample 8.4 μM in PBS (pH 7.0) with 0.2 mM DTT in a 0.2 cm path length quartz cuvette at 25 °C. The thermal denaturation curve from 5 to 95 °C was recorded on the same protein sample and cuvette by increasing temperature at a rate of 1 °C min^−1 and measuring the change in ellipticity at 222 nm.
In general terms: Circular dichroism is widely used to follow secondary structure.

B1: A2bR: human GPCR A2b receptor expressed in yeast (protein, UniProt P29275 1-332, looked up)
Adenosine receptor A2b: MLLETQDALYVALELVIAALSVAGNVLVCAAVGTANTLQTPTNYFLVSLAAADVAVGLFAIPFAITISLGFCTDFYGCLFLACFVLVLTQSSIFSLLAVAVDRYLAICVPLRYKSLVTGTRARGVIAVLWVLAFGIGLTPFLGWNSKDSATNNCTEPWDGTTNESCCLVKCLFENVVPMSYMVYFNFFGCVLPPLLIMLVIYIKIFLVACRQLQRTELMDHSRTTLQREIHAAKSLAMIVGIFALCWLPVHAVNCVTLFQPAQGKNKPKWAMNMAILLSHANSVVNPIVYAYRNRDFRYTFHKIISRYLLCQADVKSGNGQAGVQPALGVGL
B1: in series [1], the “activation of Gαi3 WT and Gαi3 N256E” value is given as “equally”; the “activation of Gαi3 ΔC9” value was “completely blunted”.

B2: GIV-CT: His-tagged human GIV residues 1,660–1,870 (protein)
chain: SETLESRHHKIKTGSPGSEVVTLQQFLEESNKLTSVQIKSSSQENLLDEVMKSLSVSSDFLGKDKPVSCGLARSVSGKTPGDFYDRRTTKPEFLRPGPRKTEDTYFISSAGKPTPGTQGKIKLVKESSLSRQSKDSNPYATLPRASSVISTAEGTTRRTSIHDFLTKDSRLPISVDSPPAAADSNTTAASNVDKVQESRNSKSRSREQQSS
modifications: left off: His tag, N-terminal, kept
B2: in the series on Gαi3-GDP, the “fraction of assigned peaks with significant chemical shift perturbations” value is given as < 20%. Further, the “overall decrease in signal intensity (median)” value in the series on Gαi3-GDP (twofold molar excess GIV-CT) is given as ~3 fold. Besides, the thermal denaturation result in series [2] (5 to 95 °C, 1 °C min^−1, ellipticity at 222 nm, PBS pH 7.0) is reported as “no cooperative transition”. Moreover, the “secondary structure by circular dichroism” value in series [2] ([…] in PBS pH 7.0, 0.2 mM DTT, 25 °C) was “little, if any, secondary structure”.

These data come from article PMC5454376, “Molecular mechanism of Gαi activation by non-GPCR proteins with a Gα-Binding and Activating motif” (Nature Communications, 2017).
